How the values were obtained:
[1] = biological target: T1, Recombinant Human VEGF165 (human, UniProt P15692-4 27-191); experiment: SPR, Biacore 3000, hVEGF immobilized on sensor chip, mutant applied at various concentrations
T1 construct: Isoform VEGF165; also called hVEGF
From the text: Examples of the determination-calculation system of surface plasmon resonance can include, but not limited to, Biacore system (GE Healthcare Japan Corp.). Procedures for the method using Biacore system are as follows: target molecules are immobilized onto a sensor chip of Biacore system by amine coupling; the target molecules are contacted with peptides at a plurality of peptide concentrations; the interaction therebetween is detected by surface plasmon resonance; a series of association and dissociation reactions is drawn in a sensorgram with time as the abscissa against the amount of binding (RU) as the ordinate; the sensorgram drawn at the plurality of peptide concentrations is fit to a 1:1 Langmuir model using BIAevaluation software (manufactured by GE Healthcare Japan Corp.) to calculate various rate parameters; and the dissociation constant is calculated from various rate parameters thus calculated.
The gene of the hVEGF-binding TACI_d2 mutant (No. 9 in FIG. 4: SEQ ID NO: 10 in the Sequence Listing) obtained in Example 2 was amplified by PCR and inserted to a vector pET-32a for expression in Escherichia coli (Novagen, Merck KGaA). […] The affinity of the mutant was determined by a surface plasmon resonance method using Biacore 3000 (GE Healthcare Japan Corp.). […] The dissociation constant of the mutant for hVEGF was determined from the obtained sensorgram.

[2] = biological target: T1, Recombinant Human VEGF165; experiment: phage panning and phage ELISA on hVEGF
[3] = biological target: T2, Recombinant Human EGF R/Fc Chimera, CF (human, UniProt P00533 25-645; P01857 100-330 = IgG part); experiment: phage panning and phage ELISA on hEGFR/Fc (TACI_d2 mutant binding to the extracellular domain of human EGFR)
T2 construct: range 25-645;range 100-330; R&D systems product; also called hEGFR/Fc

[4] = biological target: T3, human EphA2 expressed on cell surface (human, UniProt P29317 24-976); experiment: flow cytometry, phage stock on transfected HEK293T cells, anti-M13 antibody and fluorescein anti-mouse IgG, FL1 [B) (4]
T3 construct: whole, on cells; also called human EphA2-expressing cells
Protocol: (§1) The Escherichia coli cells of each clone were shake-cultured at 37° C. and allowed to grow until OD_{600 nm}=0.5. A sufficient amount of helper phages M13K07 was added thereto to infect the cells at 37° C. for 30 minutes. After addition of 2×YT/Amp/Kan/0.25 mM IPTG, the helper phage-infected Escherichia coli was shake-cultured overnight at 22° C. 20% PEG/2.5 M NaCl solution was added to the recovered culture supernatant to precipitate phages. The precipitated phages were suspended in PBS. This phage stock solution and a series of two-fold dilutions with PBS were used in phage ELISA. An Escherichia coli TG-1 strain having a pCANTAB 5E vector containing the wild-type TACI_d2 gene was also subjected to the same operation as above to prepare phages.
(§2) The transfected cells were recovered. The recovered cells were suspended in a FACS buffer (PBS containing 5% FBS) and applied to a nylon mesh. The solution was dispensed in an amount of 5×10⁵ cells/well to 96 Well Cell Culture Cluster Round Bottom With Lid (manufactured by Costar, Corning Inc.) and centrifuged to remove a supernatant. The phage stock solution prepared in the paragraph 1) of Example 4 was added to the resulting cells at a concentration of 50 μL/well, and the mixture was left standing at 4° C. for 30 minutes. […] Fluorescently stained cells were detected.

[5] = biological target: T4, Recombinant Human EphA2, CF (human, UniProt P29317 25-534); experiment: phage ELISA, hEphA2 immobilized on a Maxisorp plate, two-fold dilutions of phage stock, anti-M13-HRP, OD405 nm [A) (1]
T4 construct: Bought recombinant protein; also called hEphA2; recombinant hEphA2
Protocol: as §1, with “As to 3 clones (α-EphA2 #1 to #3: corresponding to SEQ ID NOs: 3 to 5, respectively, in the Sequence Listing and to Nos. 2 to 4, respectively in FIG. 4) selected from the Escherichia coli colonies after the final round of panning with hEphA2 as a target molecule, an Escherichia coli suspension with OD_{600 nm}=0.3 was prepared using 2×YT/Amp/1% Glu. The Escherichia” for “The Escherichia”
(§3) TACI_d2 mutant-displaying phages were added to these Maxisorp plates and reacted for 2 hours. Each Maxisorp plate was washed with TBST. Then, an Anti-M13 antibody diluted 5000-fold was added thereto. After washing of the Maxisorp plate with TBST again, the amount of a phage bound with the protein solid-phase immobilized on the plate was detected as absorbance at a wavelength of 405 nm using ELISA POD.

[6] = biological target: T5, IgG-Free, Protease-Free Bovine Serum Albumin (bovine, UniProt P02769 25-607); experiment: phage ELISA, BSA immobilized on a Maxisorp plate, two-fold dilutions of phage stock, anti-M13-HRP, OD405 nm [A) (2]
T5 construct: also called BSA
Protocol: as §1, with “As to 3 clones (α-EphA2 #1 to #3: corresponding to SEQ ID NOs: 3 to 5, respectively, in the Sequence Listing and to Nos. 2 to 4, respectively in FIG. 4) selected from the Escherichia coli colonies after the final round of panning with hEphA2 as a target molecule, an Escherichia coli suspension with OD_{600 nm}=0.3 was prepared using 2×YT/Amp/1% Glu. The Escherichia” for “The Escherichia”
as §3, with “Each Maxisorp plate was washed with TBST. Then, an Anti-M13 antibody diluted 5000-fold was added thereto.” left out

Recombinant Human TNF-α = biological target: T6, Recombinant Human TNF-α (human, UniProt P01375 77-233); experiment: phage panning and phage ELISA on hTNF-α
T6 construct: also called hTNF-α

[7] = biological target: T3, human EphA2 expressed on cell surface; experiment: flow cytometry, phage stock on transfected HEK293T cells, anti-M13 antibody and fluorescein anti-mouse IgG, FL1 [A) (2]
Protocol: as §1, §2

[8] = biological target: T3, human EphA2 expressed on cell surface; experiment: flow cytometry, phage stock on transfected HEK293T cells, anti-M13 antibody and fluorescein anti-mouse IgG, FL1 [A) (1]
Protocol: as §1, §2

T3 sequence (P29317 24-976): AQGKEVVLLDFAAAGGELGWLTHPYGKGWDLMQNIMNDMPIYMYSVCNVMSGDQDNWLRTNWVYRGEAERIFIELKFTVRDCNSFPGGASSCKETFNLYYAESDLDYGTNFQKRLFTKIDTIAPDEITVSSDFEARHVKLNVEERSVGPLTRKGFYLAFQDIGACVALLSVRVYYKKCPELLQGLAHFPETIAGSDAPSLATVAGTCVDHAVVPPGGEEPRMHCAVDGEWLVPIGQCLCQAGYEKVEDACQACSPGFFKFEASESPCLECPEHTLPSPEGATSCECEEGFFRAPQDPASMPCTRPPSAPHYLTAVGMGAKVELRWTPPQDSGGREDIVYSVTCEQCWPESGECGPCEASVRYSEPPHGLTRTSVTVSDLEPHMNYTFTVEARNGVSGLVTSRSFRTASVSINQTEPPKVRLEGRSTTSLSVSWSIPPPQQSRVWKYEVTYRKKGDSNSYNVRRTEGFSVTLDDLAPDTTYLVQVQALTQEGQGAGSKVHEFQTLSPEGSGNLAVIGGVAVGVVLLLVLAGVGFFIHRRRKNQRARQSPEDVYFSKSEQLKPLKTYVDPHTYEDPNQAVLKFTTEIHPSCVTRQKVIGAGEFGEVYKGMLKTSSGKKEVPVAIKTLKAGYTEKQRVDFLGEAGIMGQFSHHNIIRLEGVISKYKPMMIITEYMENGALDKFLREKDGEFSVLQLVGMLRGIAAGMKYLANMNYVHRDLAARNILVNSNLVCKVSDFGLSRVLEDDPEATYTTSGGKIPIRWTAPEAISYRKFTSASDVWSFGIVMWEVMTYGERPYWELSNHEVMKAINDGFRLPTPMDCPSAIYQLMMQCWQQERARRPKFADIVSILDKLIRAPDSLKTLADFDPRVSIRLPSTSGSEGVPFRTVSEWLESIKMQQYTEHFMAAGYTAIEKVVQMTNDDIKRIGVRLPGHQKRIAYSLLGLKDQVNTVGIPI
T1 sequence (P15692 other isoform, or with tags, fused parts or gaps limits assumed): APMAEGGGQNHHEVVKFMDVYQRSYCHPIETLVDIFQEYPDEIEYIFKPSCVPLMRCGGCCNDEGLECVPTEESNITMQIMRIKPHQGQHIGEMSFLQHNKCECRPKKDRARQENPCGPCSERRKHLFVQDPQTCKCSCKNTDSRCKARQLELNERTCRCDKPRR
T4 sequence (P29317 25-534 limits assumed): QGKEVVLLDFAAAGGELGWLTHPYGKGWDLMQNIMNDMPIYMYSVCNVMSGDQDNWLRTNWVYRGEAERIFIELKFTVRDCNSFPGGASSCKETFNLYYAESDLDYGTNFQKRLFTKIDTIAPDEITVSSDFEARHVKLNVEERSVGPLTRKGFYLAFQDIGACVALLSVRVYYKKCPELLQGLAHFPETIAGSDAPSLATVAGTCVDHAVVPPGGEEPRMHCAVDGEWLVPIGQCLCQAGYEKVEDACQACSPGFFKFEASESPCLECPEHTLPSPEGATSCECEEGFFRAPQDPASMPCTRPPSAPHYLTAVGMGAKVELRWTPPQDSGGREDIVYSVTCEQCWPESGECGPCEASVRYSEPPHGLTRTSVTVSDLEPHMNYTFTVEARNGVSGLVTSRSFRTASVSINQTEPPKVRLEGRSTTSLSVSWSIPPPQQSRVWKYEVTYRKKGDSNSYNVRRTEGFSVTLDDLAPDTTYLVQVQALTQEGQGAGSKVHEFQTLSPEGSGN
T6 sequence (P01375 77-233 limits assumed): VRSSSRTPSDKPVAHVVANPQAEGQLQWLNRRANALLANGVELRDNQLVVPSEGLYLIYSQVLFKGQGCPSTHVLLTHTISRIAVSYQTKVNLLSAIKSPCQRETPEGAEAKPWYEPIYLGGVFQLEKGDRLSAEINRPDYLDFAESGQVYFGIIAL
T5 sequence (P02769 25-607 limits assumed): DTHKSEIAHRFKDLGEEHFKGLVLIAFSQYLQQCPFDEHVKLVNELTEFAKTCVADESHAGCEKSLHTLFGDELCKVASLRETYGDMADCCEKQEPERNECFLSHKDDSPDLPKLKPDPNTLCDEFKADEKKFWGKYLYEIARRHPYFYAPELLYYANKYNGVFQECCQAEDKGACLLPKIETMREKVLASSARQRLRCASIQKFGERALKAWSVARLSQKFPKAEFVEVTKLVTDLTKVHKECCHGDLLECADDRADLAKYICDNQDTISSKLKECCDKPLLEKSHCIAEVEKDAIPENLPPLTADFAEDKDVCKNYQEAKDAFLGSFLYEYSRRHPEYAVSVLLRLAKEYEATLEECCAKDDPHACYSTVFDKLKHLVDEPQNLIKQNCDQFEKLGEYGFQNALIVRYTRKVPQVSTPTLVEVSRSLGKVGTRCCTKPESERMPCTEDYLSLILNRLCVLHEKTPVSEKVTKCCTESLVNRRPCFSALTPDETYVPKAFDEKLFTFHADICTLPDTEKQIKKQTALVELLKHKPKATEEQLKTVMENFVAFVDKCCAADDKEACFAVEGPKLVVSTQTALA

B1: hVEGF-binding TACI_d2 mutant (No. 9 in FIG. 4), purified monomer (designed binder)
chain: SLSCRKEQGKMYDLYGFDCRSCASMCGKHPDLCAYFCEN
notes: Expressed from pET-32a in E. coli Origami B; thioredoxin tag and His tag removed by thrombin cleavage; monomer peak of size exclusion chromatography used; also called the mutant
Kd [1]: 14 µM

SLSCRKEQGKMYDLYGFDCRSCASMCGKHPDLCAYFCEN (designed binder, The purified free form is m26) [human VEGF-binding peptide (2), phage-displayed]
binding result [2]: binds

SLSCRKEQGKSYGAIMYDCSSCASYCGEHPWHCAYFCEN (designed binder) [human EGFR-binding peptide (1)]
binding result [3]: binds

SLSCRKEQGKFYDHLLRDCISCASICGQHPKQCAYFCENKLR (receptor, UniProt O14836 68-109, looked up, also called WT) [wild-type TACI_d2]
binding result [4]: no binding | binding result [5]: no binding | binding result [6]: no binding

SLSCRKEQGKSYTSEWFDCASCASKYGKHPLVCAYFCEN (designed binder) [human TNFα-binding peptide (3)]
binding result (Recombinant Human TNF-α): binds

SLSCRKEQGKMYLLKEWDCASCASACGNHPHYCAYFCEN (designed binder, also called α-EphA2 #2) [α-EphA2 TACI_d2 #2]
binding result [7]: binds | binding result [5]: binds

SLSCRKEQGKIYMTWHDDCHSCASLCGSHPLFCAYFCEN (designed binder) [human VEGF-binding peptide (5)]
binding result [2]: binds

SLSCRKEQGKQYMAGHFDCNSCASRYGHHPLMCAYFCEN (designed binder) [human TNFα-binding peptide (1)]
binding result (Recombinant Human TNF-α): binds

SLSCRKEQGKNYIHQQWDCASCASECGGHPNYCAYFCEN (designed binder) [human EGFR-binding peptide (3)]
binding result [3]: binds

SLSCRKEQGKHYLLKEYDCDSCASECGYHPDYCAYFCEN (designed binder, also called α-EphA2 #3) [α-EphA2 TACI_d2 #3]
binding result [5]: binds

SLSCRKEQGKIYNQYGFDCKSCASWCGKHPDMCAYFCEN (designed binder) [human VEGF-binding peptide (4)]
binding result [2]: binds

SLSCRKEQGKEYGAIAWDCSSCASYCGAHPFECAYFCEN (designed binder) [human EGFR-binding peptide (2)]
binding result [3]: binds

SLSCRKEQDKTYIEYGFDCRSCASGCGGHPLMCAYFCEN (designed binder) [human TNFα-binding peptide (2)]
binding result (Recombinant Human TNF-α): binds

SLSCRKEQGKQYLLREWDCDSCASECGSHPHYCAYFCEN (designed binder, also called α-EphA2 #1) [α-EphA2 TACI_d2 #1]
binding result [8]: binds | binding result [5]: binds

SLSCRKEQGKWYMTWESDCKSCASWCGSHPFDCAYFCEN (designed binder) [human VEGF-binding peptide (1)]
binding result [2]: binds

SLSCRKEQGKMYMVWTQDCKSCASWCGAHPVACAYFCEN (designed binder) [human VEGF-binding peptide (3)]
binding result [2]: binds

SLSCRKEQGKDYMVFGQDCHSCASWCGKHPVACAYFCEN (designed binder) [human VEGF-binding peptide (6)]
binding result [2]: binds

Source: patent publication US20130316929A1 (Daiichi Sankyo, published 2013)
